According to the DeepSol protein solubility set:

Test: soluble on expression in E. coli; label from the status in PepcDB or PDB records

| Sequence | soluble on expression in E. coli |
| --- | --- |
| MIGNLKLKRFEEVNLVLSGGAAKGIAHIGVLKALEELGIKVKRLSGVSAGAIVSVFYASGYTPDEMLKLLKEVNWLKLFKFKTPKMGLMGWEKAAEFLEKELGVKRLEDLNIPTYLCSADLYTGKALYFGRGDLIPVLLGSCSIPGIFEPVEYENFLLVDGGIVNNLPVEPLEKFKEPIIGVDVLPITQERKIKNILHILIRSFFLAVRSNSEKRKEFCNVVIEPPLEEFSPLDVNKADEIFLRGYESTLRIMRNFVKHLEHHHHHH | not soluble |
| MESGVPLVVVLRDVLEYVDDTSEAQYAINTDGVLVNGDSVGDVNRPIGMFDILAFPDRDEYYRVFPDEGGRLGLTEIDADAAGSKLNKVTDKTTVSGGRTQLNFHDGSNLALDEDAYAGGDSVVVDTDTNEIVAHFQYEEGALVTAVAGQHAGDIGEIAEINVQPGSASNTVRVDDENGGFETIAEYVVVIDENFLEHHHHHH | soluble |
| MGSDKIHHHHHHMDIIEELRAYREKDIPYSRVLSSMCTVPHPVAVEAHRMFIETNLGDPGIFRGTVELEAKLMRLIGDILHCETPAGYICSGGTEANIQGIRAARNVQKKENPNIVIPKTAHFSFEKIGDILGVKIKRAGVDEEYKVDVGQVEDLMDENTVAIVGIAGTTELGQIDPIVELSKLAEERQVELHVDAAFGGLVIPFMDNPYPFDFQNRGVSSITIDPHKMGMATIPAGGIIFRNESYLRALEVETPYLTSKTQFTLTGTRPGTGVASAYAVLKSLGFEGMREVVKNCLKNTRILVEEMRDLGFEPVIEPVMNVVSFRTDEAERIKEELYRMRWVISTIREPKAIRFVVMPHVTEEVIKNFISDFRKVLRR | not soluble |
| MGSDKIHHHHHHMAMDRVTKQLTVSKLLSLANFIPKDSQKILFYSTPDVSDNALALFKYISEKTDDYELAWLLNNPNSPSVKTLKEKYPEVKTIYLYSLEGLKELLRSKFVVLTDVLPLTPHRGQKIIQLWHGLPGKKTGYEHPLNVKDLYLYMDKWTTDFVTTSELVVGAFVRQFMINPRKFRILGQPRNDGLFDNLKDAKNILSSILGRDVEDYDHLILYAPTYRYTSYMKDFQASVNVVKTLFHHKFLEFLKEENILLVIKPHKLVADVIKPEIKENSNVILLTDEHLQSRLITINDVMGAFDILITDYSSIFEDYILLERPILFYLPDREALERKSGFLLPYEFFAPGRKPETLEGLIHALKIYMEDPEVDSEWRKTVKNLLYEVGKDNKSSERIYNLIIKQK | not soluble |
| MAQEEEDVRDYNLTEEQKAIKAKYPPVNRKYEYLDHTADVQLHAWGDTLEEAFEQCAMAMFGYMTDTGTVEPLQTVEVETQGDDLQSLLFHFLDEWLYKFSADEFFIPRVGRRIFIVQAPSGNRSQSNNIFSNAGL | soluble |
| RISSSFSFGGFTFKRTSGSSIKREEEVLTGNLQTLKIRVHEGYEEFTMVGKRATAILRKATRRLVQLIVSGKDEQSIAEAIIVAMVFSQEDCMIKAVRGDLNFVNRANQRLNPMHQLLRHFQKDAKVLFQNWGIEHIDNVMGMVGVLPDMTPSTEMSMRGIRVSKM | soluble |
| MLRKLWKRPHSTWNKITAVTNVSSEKTITDGQLSEKARKDVDHDVDRTIYDIPLEYCHLRIPKSRTSRSCPDPWRRYGAHVKLCEVGGWMPENRNKNSKVIVVKKGSAPPAAPRCKPLMTVEDYLGVLRK | not soluble |
| MGSDKIHHHHHHVQQSQIMEDKIISAVRTFASSINSGGKVVADMSELIEVTSQLPLSSFDYWERFIRSEFSTALRESNSPKWKVWSKPKELVTWLDLISWDGYKREKALRALSGAAPNTFFFSLAVRRLNDWVPQVRKAAREKLPEIAKSTVPECVVDALCVALSNWNSWGRIEDADKEVLLKILCEKEIAKSLRSKLIFSASGPMPSLFSQLGRTPILDGQIEEIAKSAIQPSVRAKAYRSLFEGRVIWIEGRKWVWTDIRYCEGRLKPIVGERKLEIETPLIDLLKRSSEDRSSIVRRVSAEILIRELGNLGVKAKEFAERFALDSSQAVSERGDFALKKLDEAERANAS | not soluble |
| MDVSYLLDSLNDKQREAVAAPRSNLLVLAGAGSGKTRVLVHRIAWLMSVENCSPYSIMAVTFTNKAAAEMRHRIGQLMGTSQGGMWVGTFHGLAHRLLRAHHMDANLPQDFQILDSEDQLRLLKRLIKAMNLDEKQWPPRQAMWYINSQKDEGLRPHHIQSYGNPVEQTWQKVYQAYQEACDRAGLVDFAELLLRAHELWLNKPHILQHYRERFTNILVDEFQDTNNIQYAWIRLLAGDTGKVMIVGDDDQSIYGWRGAQVENIQRFLNDFPGAETIRLEQNYRSTSNILSAANALIENNNGRLGKKLWTDGADGEPISLYCAFNELDEARFVVNRIKTWQDNGGALAECAILYRSNAQSRVLEEALLQASMPYRIYGGMRFFERQEIKDALSYLRLIVNRNDDAAFERVVNTPTRGIGDRTLDVVRQTSRDRQLTLWQACRELLQEKALAGRAASALQRFMELIDALAQETADMPLHVQTDRVIKDSGLRTMYEQEKGEKGQTRIENLEELVTATRQFSYNEEDEDLMPLQAFLSHAALEAGEGQADTWQDAVQLMTLHSAKGLEFPQVFIVGMEEGMFPSQMSLDEGGRLEEERRLAYVGVTRAMQKLTLTYAETRRLYGKEVYHRPSRFIGELPEECVEEVRLRATVSRPVSHQRMGTPMVENDSGYKLGQRVRHAK | soluble |
| RIRKIIAGYQTELEASQEQEKKARQEKDELMRNMAHDLRTPLTGVMTYVDVMKLENEAYAENMKNLNFISEKVLDIRTQVDNLLDFSIAGSQRPVELDASMDVEYIFGDYLSDVCAQLMKSNYEVDAEGISFKQVKVAVNMAFLTRIFSNLTDNIYKYADNKKPVVMKTAFTKKTFSVEIGNGVCDNKTLLKSAGIGLKSVDAMMQRMNGSMSFKREHGKFWVKLEFPIV | not soluble |
| GPLGSCDSGTGLTGNYSQDTLTVIATLREAIDLPQDAPNRQEVQDTARGQINDYISRYRRKGDAGGLKSFTTMQTALNSLAGYYTSYGARPIPEKLKKRLQLEFTQAERSIERGV | soluble |
| MVAQSKILLYYKFTPIADPKAMMLWQRDMCELLGLKGRILISEHGINGTVGGDMDACKRYVRKMREYPGFRGTEFKWSDGGAEDFPKLSVKVRDEIVAFGAPGELKVDEKGVIGGGVHLKPEEVNKLVEERGDDVVFFDGRNAMEAQIGKFKNAVVPDVRTTHDFIRELESGKYDWMKDKPVVSYCTGGIRCEILSSLMKNRGFKEIYQIDGGIVRYGEKYGNDGLWEGSLYVFDRRMHMEFGNGVQDPGFIQLGHCVQCGAPTNKFEHCINEDECRELVLMCPDCYENPATRNCGREHCKEVAAEAAAAAAVLEHHHHHH | soluble |
| MTTFNYTNILTQAVDELSESQSYKGLFHQHKDGDPLPSAKSLYKIVELARAIIFPGYFGNSTVNSHTINYHIGVNVETLFGLLTEQILAGLCFGQENSKNATDDNEPCRETASLLAARFISKLPELRRILATDVEAAYYGDPAATCFGEIISCYPAIRAISNYRIAHELLILGVPLIPRFITEMAHSETGIDIHPGAQIGHHFTIDHGTGVVIGATSIIGNNVKLYQGVTLGAKSFPLDNNGNPIKGIPRHPILEDDVIVYSNATILGRVTIGKGATVGGNIWVTENVPAGSRIVQRKNKDELEHHHHHH | soluble |
| MHLNANLKYCCLWKLQSPHSCVPMLVWNCSLHPPSQYCSPLFETAVAENINRLSSHCIKKKSIQRGEKMKQTLRLLGAVTLLGITGCQFNQPPVSSIGAWEKPGADFTEIGKALLECGMPTPYDRDPENDNRSFNQMATIDACMLQAGFRYKYDVGGGMVWKS | not soluble |
| MTQRPWSKLQREIYDLLTPTINLQIHCTRYPMRSQNGGSTDLPRYWITLDKNVIWDYPKDFIAGNAGVRNFHGETCWYPYLTDICSISDLLREYIDTPKAELLTKQFTSDKWGLVNILRAADRRIGMRRLDQLRRKTHNIAALKIIARRSE | not soluble |
| MNRSGQRLIVSAPRQIAFSTAVRQLSATPIQCQNESENSEPQKQGWISRLLKGQSMDPSSWQKQSHSSLLSNSELMYEFMTHNYRPGEQDAYLDAFGKYKNEMNQKNPSIELVGSWTCAYGRTRDQAIHLWRHNKGYEDVDSSISLHGKDSGIRAADNDVAKLCGRRKNLIVKSFSYWREPEQRPPNHVYDLRSYVLQPGTMIDWASAWAKGIQYRREANQDVGGFFAQVGQLYVVYHIWAYPSMSGRNDTRHATWAKPGWDATVANTVPLIKKMQSKILTPTKYSQLE | not soluble |
